Substrate in this data set: NC(=O)NO
The experiment in a line: purified protein. Particulars: 1 mM NADH, NB5R3, CYB5B, 20 mM MES pH 6.0, 37 °C.

Results on one protein are retold here after PMC11513889.

B1: mARC1 (Homo sapiens) (protein)
chain: GAAGSSALARFVLLAQSRPGWLGVAALGLTAVALGAVAWRRAWPTRRRRLLQQVGTVAQLWIYPVKSCKGVPVSEAECTAMGLRSGNLRDRFWLVINQEGNMVTARQEPRLVLISLTCDGDTLTLSAAYTKDLLLPIKTPTTNAVHKCRVHGLEIEGRDCGEATAQWITSFLKSQPYRLVHFEPHMRPRRPHQIADLFRPKDQIAYSDTSPFLILSEASLADLNSRLEKKVKATNFRPNIVISGCDVYAEDSWDELLIGDVELKRVMACSRCILTTVDPDTGVMSRKEPLETLKSYRQCDPSERKLYGKSPLFGQYFVLENPGTIKVGDPVYLLGQ
Usually Km stands for the substrate concentration at which the rate is half of its maximum. Regarding B1, the Km stood at 7 mM.
